Square brackets hold non-standard residues; d marks the D form. Ends that are not written are not given here. * marks the point of attachment. Biotin = O=C1N[C@H]2[C@H](CS[C@H]2CCCCC(=O)*)N1; Lys(Me2) = CN(C)CCCC[C@H](N)C(=O)O
Molecular target: T1, MBP-53BP1-Tudor protein (residues 1484-1603) (UniProt Q12888 1484-1603)
T1 construct: range 1484-1603; also called MBP-Tudor fusion of 53BP1; not shown: MBP fusion partner
Assay: pulldown competition on MBP-53BP1-Tudor; competitor GST-UbvG08; immunoblot

T1 sequence (Q12888 1484-1603): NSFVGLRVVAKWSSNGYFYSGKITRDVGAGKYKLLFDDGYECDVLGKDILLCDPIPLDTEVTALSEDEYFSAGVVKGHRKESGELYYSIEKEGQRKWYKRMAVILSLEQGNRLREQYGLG

- IC50: 100 to 300 µM
B1: biotin-labeled peptide derived from histone H4K20me2 (peptide)
peptide: {Biotin-Mini‑PEG}-YGKGGAKRHR[Lys(Me2)]VLRD
notes: Synthetic peptide (BioBasic Canada Inc.); also called H4K20me2 peptide

Source: patent US20190010196A1 (GOVERNING COUNCIL OF THE UNIVERSITY OF TORONTO, published 2019)
